Assay results taken from patent US20150031754, “APTAMER MODULATORS OF ESTROGEN RECEPTORS” (RESEARCH FOUNDATION OF STATE UNIVERSITY OF NEW YORK AT …, published 2015).

B1: AptER-1 (clone B63) (ssRNA)
RNA: GGGAGAAUUCAACUGCCAUCUAGGCCCACAGUUCAGAGGCACCGCGAACAAAACGCAAGACAGAGUGCCGACAAGAGCACUACAAGCUUCUGGACUCGGU
B2: AptER-4 (ssRNA)
RNA: GGGAGAAUUCAACUGCCAUCUAGGCCACAGCCGGCGGUCGAACACCAGAGGGCGACUUUGGGUAGUCGAGUAUUAAGUACUACAAGCUUCUGGACUCGGU

Tests used:
[1] = biological target: T1, Human estrogen receptor beta (hERβ) (Homo sapiens, UniProt Q92731 Q92731:1-530); assay: filter; text prints hERα for this 26 nM value but context compares with hERβ (probable typo); settings: tags: none stated; baculovirus/insect cells; EMD4 Biosciences 330657; label: 32P-CTP internal
T1 sequence (Q92731 whole entry, one chain of several): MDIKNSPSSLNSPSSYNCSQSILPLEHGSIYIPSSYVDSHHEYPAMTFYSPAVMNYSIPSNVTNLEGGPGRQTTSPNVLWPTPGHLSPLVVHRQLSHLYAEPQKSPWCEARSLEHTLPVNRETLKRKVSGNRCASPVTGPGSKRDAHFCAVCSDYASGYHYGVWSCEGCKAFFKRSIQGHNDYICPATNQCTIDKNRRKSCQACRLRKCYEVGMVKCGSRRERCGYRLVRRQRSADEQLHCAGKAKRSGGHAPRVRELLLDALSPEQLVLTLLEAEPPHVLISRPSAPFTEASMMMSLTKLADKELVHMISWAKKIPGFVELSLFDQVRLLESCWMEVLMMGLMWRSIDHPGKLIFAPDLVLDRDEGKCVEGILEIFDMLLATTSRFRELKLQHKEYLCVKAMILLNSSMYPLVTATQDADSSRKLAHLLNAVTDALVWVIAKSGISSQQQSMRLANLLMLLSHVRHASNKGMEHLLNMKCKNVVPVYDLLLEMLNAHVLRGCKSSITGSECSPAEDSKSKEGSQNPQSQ
Protocol: A constant trace amount of [γ-³²P]-CTP incorporated RNA aptamer (˜0.1 nM) was titrated with increasing amounts of the target protein ranging from 5 to 150 nM. The binding activity at each concentration was determined as % binding, by calculating the radioactive signal of the RNA-protein complex retained on the filter as a percentage of the signal at the highest protein concentration (saturated) used. The assays were performed in triplicates for each aptamer. A binding curve was constructed using Sigma Plot 9.0.1, with average binding affinity (% binding) as a function of the protein concentration using a sigmoidal equation (Hill equation, 3 parameters). Apparent Kd was the protein concentration where half of the maximal binding activity was achieved, and were calculated from the data points by using Sigma Plot. […] The first 3 aptamers were isolated in in vitro selection I, and their affinity rank explains the relative abundance in the final selected library. More specifically, it is believed that AptER-1 dominated the final selected pool because it was the strongest binder. AptER-4 was the weakest binder, and would not have been easily identified in the selection I libraries. […]

[2] = biological target: hERα ligand-binding domain (Homo sapiens, UniProt P03372 P03372:282-595); assay: EMSA; 100 nM protein, 2.5 nM RNA; settings: tags: GST fusion, baculovirus/insect cells, Invitrogen PV4543, label: 32P-CTP internal
hERα ligand-binding domain, sequence (P03372 282-595, one chain of several): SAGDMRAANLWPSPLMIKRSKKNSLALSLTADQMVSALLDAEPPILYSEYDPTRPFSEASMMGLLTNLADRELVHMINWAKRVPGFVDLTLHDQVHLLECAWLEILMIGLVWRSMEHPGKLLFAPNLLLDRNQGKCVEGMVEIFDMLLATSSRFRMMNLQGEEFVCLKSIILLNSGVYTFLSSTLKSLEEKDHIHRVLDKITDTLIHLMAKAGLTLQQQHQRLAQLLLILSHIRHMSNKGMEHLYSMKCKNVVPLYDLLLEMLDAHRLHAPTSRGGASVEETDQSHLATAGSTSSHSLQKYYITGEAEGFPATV
Protocol: Human ERα was incubated with ligands (40 nM to 5 μM E2 or OHT) or vehicle control (EtOH) at 37° C. for 10 min before addition of RNA. Regardless of the absence or presence of the ligands, hERα formed a complex with AptER-1 in the same way. In FIG. 12B, the ligand competition assays showing that the interaction between AptER-4 and hERα was not intervened by ligand-binding. Human ERα was incubated with 1 μM E2 or vehicle control (EtOH) before addition of AptER-4. Regardless of the absence or presence of the ligands, hERα formed a complex with AptER-4 in the same way. […] Proteins were 100 nM. In the presence of hERα, both aptamers were shifted. No binding activity to GST/hERα-LBD was detected.
Whether the aptamers bind to LBD was examined in two ways. One approach was an EMSA to directly examine whether the aptamers bound to the GST/hERα-LBD construct. The recombinant human ERα-LBD purchased from Invitrogen was expressed as a GST-tagged fusion protein in baculovirus-infected insect cells. It contains amino acid 282 to 595 of hERα, with a calculated molecular weight of 62.80 kDa protein. According to the manufacturer's instruction, the concentration of functional receptor was determined by quantification of estrodial, [6, 7-³H9(N)] receptor complexes using a hydroxyapatite (HAP) assay. Binding reactions were set up with 2.5 nM radiolabeled aptamers and 100 nM protein. […]

hERα DNA-binding domain [3] = biological target: T2, hERα DNA-binding domain (Homo sapiens, UniProt P03372 P03372:180-268); assay: EMSA; also no binding in filter assay; settings: tags: N-terminal His6; E. coli BL21(DE3); label: 32P-CTP internal
T2 sequence (P03372 180-268, one chain of several): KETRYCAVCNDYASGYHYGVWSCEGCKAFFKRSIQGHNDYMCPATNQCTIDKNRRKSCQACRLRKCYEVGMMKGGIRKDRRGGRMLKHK
Protocol: No binding activity to RNase inhibitor (control) or DBD & RNase inhibitor was detected. The binding reactions were resolved on the same type of gel as above. […] End-radiolabeled ERE-50mer at 5 nM was mixed with 100× or 400× more concentrated unlabeled competitors ERE-50mer, AptER-1, -2 and -3 RNA or an early generation pool in hERα selection G1 before addition of hERα (40 nM). Only cold ERE-50mer disrupted radioactive ERE-hERα complex.
Class I aptamers bound with similar affinities to both subtypes of ER, which share the highest homology (96%) in the DBD. This raised the possibility that the target site of Class I aptamers was located within the DBD. Whether the aptamers bind to the DBD was tested in binding assays using a recombinant hERα-DBD. It was expressed as a His₆-tagged fusion protein in E. coli BL21 (DE3) and purified as described in the Materials and Methods. To verify its ERE-binding capability, a DNA EMSA was performed. DNA oligo ERE-50mer contains a GAAA tetra loop, which forces the oligo to form a hairpin. A copy of Xenopus laevis vitellogenin A2 ERE (5′-[…]-3′, SEQ ID NO: 73) was presented in the stem of a hairpin. […] However, in both EMSA (FIG. 11B) and filter-binding assay, no association was detected between AptER-1 and DBD. […]

[4] = biological target: T3, Human estrogen receptor alpha (hERα), full-length, unliganded (Homo sapiens, UniProt P03372 P03372:1-595); assay: FP; filter-binding assay (nitrocellulose), 12 mM HEPES pH 7.6, 150 mM NaCl, 10 mM MgCl2, 37 C; Hill coefficient about 1; settings: tags: none stated; baculovirus/insect cells; Invitrogen P2187 or EMD4 Biosciences 330655; label: 32P-CTP internal
T3 sequence (P03372 whole entry, one chain of several): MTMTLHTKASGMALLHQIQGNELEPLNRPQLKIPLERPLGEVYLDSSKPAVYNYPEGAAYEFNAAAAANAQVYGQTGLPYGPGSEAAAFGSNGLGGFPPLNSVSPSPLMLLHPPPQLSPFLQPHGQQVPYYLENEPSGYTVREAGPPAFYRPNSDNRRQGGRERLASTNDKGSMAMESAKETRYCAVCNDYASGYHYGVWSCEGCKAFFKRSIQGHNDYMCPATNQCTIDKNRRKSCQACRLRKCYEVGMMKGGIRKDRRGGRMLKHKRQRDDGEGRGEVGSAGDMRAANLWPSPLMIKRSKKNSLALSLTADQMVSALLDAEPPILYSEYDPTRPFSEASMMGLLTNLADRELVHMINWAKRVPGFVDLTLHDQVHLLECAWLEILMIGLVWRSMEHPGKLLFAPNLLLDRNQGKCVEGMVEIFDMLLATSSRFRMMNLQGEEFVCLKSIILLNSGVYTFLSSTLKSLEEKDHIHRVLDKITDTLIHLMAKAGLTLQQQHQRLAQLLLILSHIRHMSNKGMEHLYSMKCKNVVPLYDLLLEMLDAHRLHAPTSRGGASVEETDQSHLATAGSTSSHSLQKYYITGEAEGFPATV
Protocol: (§1) The dissociation constant (Kd) of the AptER-1, -2, -3, and -4 were measured using a nitrocellulose filter binding assay. A constant trace amount of [γ-³²P]-CTP incorporated RNA aptamer (˜0.1 nM) was titrated with increasing amounts of the target protein ranging from 5 to 150 nM. The binding activity at each concentration was determined as % binding, by calculating the radioactive signal of the RNA-protein complex retained on the filter as a percentage of the signal at the highest protein concentration (saturated) used. The assays were performed in triplicates for each aptamer. A binding curve was constructed using Sigma Plot 9.0.1, with average binding affinity (% binding) as a function of the protein concentration using a sigmoidal equation (Hill equation, 3 parameters). Apparent Kd was the protein concentration where half of the maximal binding activity was achieved, and were calculated from the data points by using Sigma Plot. […] The first 3 aptamers were isolated in in vitro selection I, and their affinity rank explains the relative abundance in the final selected library. More specifically, it is believed that AptER-1 dominated the final selected pool because it was the strongest binder. AptER-4 was the weakest binder, and would not have been easily identified in the selection I libraries.

[5] = biological target: T3, Human estrogen receptor alpha (hERα), …; assay: filter; same buffer, 37 C; Hill n>1; settings: tags: none stated; baculovirus/insect cells; Invitrogen P2187 or EMD4 Biosciences 330655; label: 32P-CTP internal; predicted three-way junction with two long hairpins
Protocol: as §1

[6] = biological target: T1, Human estrogen receptor beta (hERβ); assay: filter; affinity for hERβ too low to be determined; settings: tags: none stated; baculovirus/insect cells; EMD4 Biosciences 330657; label: 32P-CTP internal; predicted three-way junction with two long hairpins
hERα DNA-binding domain [7] = biological target: T2, hERα DNA-binding domain; assay: DBD binding assay, method not specified; settings: tags: N-terminal His6; E. coli BL21(DE3); label: 32P-CTP internal; predicted three-way junction with two long hairpins

Row | Binder | Kd [1] [nM] | binding result [2] | binding result (hERα DNA-binding domain [3]) | Kd [4] [nM] | binding result ([2]; predicted three-way junction with two long hairpins) | Kd [5] [nM] | binding result [6] | binding result (hERα DNA-binding domain [7])
1 | B1 | ~26 | no binding | no binding | ~16 |  |  |  | 
2 | B2 |  |  |  |  | no binding | ~45 | no binding | no binding
